Consider one substance from patent US20210355215A1.

For the experiment, the target named is BsAb CD3-BCMA (human). Nature of the experiment: 1 mL CH1-XL column, purified BsAb 5 mg/ml load, residence time 4 min, 10% breakthrough.
Chain of BsAb CD3-BCMA (human) (heavy, as listed by the source, chain 1 of 3): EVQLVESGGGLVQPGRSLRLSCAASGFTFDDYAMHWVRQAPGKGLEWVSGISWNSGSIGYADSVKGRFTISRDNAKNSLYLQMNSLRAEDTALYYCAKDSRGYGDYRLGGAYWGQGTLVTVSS
Chain of BsAb CD3-BCMA (human) (light, as listed by the source, chain 2 of 3): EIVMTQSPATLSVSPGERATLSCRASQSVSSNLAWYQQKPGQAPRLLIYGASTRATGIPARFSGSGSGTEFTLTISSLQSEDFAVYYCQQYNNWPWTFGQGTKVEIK
Chain of BsAb CD3-BCMA (human) (heavy, as listed by the source, chain 3 of 3): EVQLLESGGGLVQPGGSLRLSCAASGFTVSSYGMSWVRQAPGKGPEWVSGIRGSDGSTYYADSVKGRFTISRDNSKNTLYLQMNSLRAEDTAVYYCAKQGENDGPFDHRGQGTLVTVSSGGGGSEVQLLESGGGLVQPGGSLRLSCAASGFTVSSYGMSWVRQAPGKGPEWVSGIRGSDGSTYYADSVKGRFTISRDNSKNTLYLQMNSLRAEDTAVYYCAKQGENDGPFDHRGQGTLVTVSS

Substance “CaptureSelect CH1-XL affinity resin ligand (13 kDa llama heavy chain antibody fragment, Ig heavy chain CH1-specific nanobody) (VHH)” displayed a dynamic binding capacity of 9.3 mg/mL.
